The results in this text go back to the PETadex activity labels (doi:10.3389/fbioe.2022.865787).

Substrate in data set [1]: pNPB
Briefly: Proxy for plastic degradation [Absorbance @ 405nm]. The note with it: pH 8.

Substrate in data set [2]: PET
Briefly: Proxy for plastic degradation [Released monomer concentration (HPLC/LC-MS) (TPA)]. Conditions: pH 8.5, part of the chain shown.

Substrate in data set [3]: PET
Briefly: Proxy for plastic degradation [Released monomer concentration (HPLC/LC-MS) (MHET)]. Conditions: pH 8.5, part of the chain shown.

Substrate in data set [4]: PET
Briefly: Proxy for plastic degradation [Released monomer concentration (HPLC/LC-MS) (Total aromatic products)]. Conditions: pH 8.5, part of the chain shown.

B1: unnamed (protein)
chain: MLTHSISPEETDGGRRTPLSRMSRLAARVGVTLSLAAGLTAGVTAPAHASNPYERGPAPTESSVTAVRGYFDTDTDTVSSLVSGFGGGTIYYPTDTSEGTFGGVVIAPGYTASQSSMAWMGHRIASQGFVVFTIDTITRYDQPDSRGRQIEAALDYLVEDSDVADRVDGNRLAVMGHSMGGGGTLAAAENRPELRAAIPLTPWHLQKNWSDVEVPTMIIGAENDTVASVRTHSIPFYESLDEDLERAYLELAGASHFAPNISNTVIAKYSISWLKRFVDEDERYEQFLCPPPDTGLFSDFSDYRDSCPHTT
As for B1, the “Proxy for plastic degradation” value came out at 100% in data set [1] (0 h); 15% in data set [1] (5 °C); 17.5% in data set [1] (10 °C); 20% in data set [1] (15 °C); 32.5% in data set [1] (20 °C); 50% in data set [1] (25 °C). Besides, the “Proxy for plastic degradation” value is 90% in data set [1] (30 °C); 100% in data set [1] (35 °C); 80% in data set [1] (40 °C); 70% in data set [1] (45 °C); 37.5% in data set [1] (50 °C); 25% in data set [1] (55 °C). The “Proxy for plastic degradation” value in data set [1] (60 °C) worked out at 15%; in data set [1] (65 °C), 12.5%; in data set [1] (70 °C), 10%; in data set [1] (20 h), 75%; in data set [1] (40 h), 70%; in data set [1] (60 h) it was 55%. Also, the results for the “Proxy for plastic degradation” value in data set [1] (80 h), in data set [1] (100 h) and in data set [1] (120 h) were 40%, 35% and 25%, respectively.

B2: unnamed (protein)
chain: MLTHSISPEETDGGRRTPLSRMSRLAARVGVTLSLAAGLTAGVTAPAHASNPYERGPAPTESSVTAVRGYFDTDTDTVSSLVSGFGGGTIYYPTDTSEGTFGGVVIAPGYTASQSSMAWMGHRIASQGFVVFTIDTITRYDQPDSRGRQIEAALDYLVEDSDVADRVDGNRLAVMGHSMGGGGTLAAAENRPELRAAIPLTPWHLQKNWSDVEVPTMIIGAENDTVASVRTHSIPFYESLDEDLERAYLELDGASHFAPNISNTVIAKYSISWLKRFVDEDERYEQFLCPPPDTGLFSDFADYRDSCPHTT
As for B2, the “Proxy for plastic degradation” value came to 100% in data set [1] (0 h); 42.5% in data set [1] (5 °C); 45% in data set [1] (10 °C); 47.5% in data set [1] (15 °C); 55% in data set [1] (20 °C); 75% in data set [1] (25 °C). Moreover, the “Proxy for plastic degradation” value in data set [1] (30 °C) worked out at 100%; in data set [1] (35 °C), 92.5%; in data set [1] (40 °C), 87.5%; in data set [1] (45 °C), 77.5%; in data set [1] (50 °C), 62.5%; in data set [1] (55 °C), 35%. The “Proxy for plastic degradation” value in data set [1] (60 °C) was 20%; in data set [1] (65 °C), 17.5%; in data set [1] (70 °C), 15%; in data set [1] (20 h) it was 87.5%; in data set [1] (40 h), 77.5%; in data set [1] (60 h) it was 65%. Further, the “Proxy for plastic degradation” value in data set [1] (80 h) worked out at 62.5%; in data set [1] (100 h) it was 60%; in data set [1] (120 h) it was 57.5%.

B3: unnamed (protein)
chain: MNFPRASRLMQAAVLGGLMAVSAAATAQTNPYARGPNPTAASLEASAGPFTVRSFTVSRPSGYGAGTVYYPTNAGGTVGAIAIVPGYTARQSSIKWWGPRLASHGFVVITIDTNSTLDQPSSRSSQQMAALRQVASLNGTSSSPIYGKVDTARMGVMGWSMGGGGSLISAANNPSLKAAAPQAPWDSSTNFSSVTVPTLIFACENDSIAPVNSSALPIYDSMSRNAKQFLEINGGSHSCANSGNSNQALIGKKGVAWMKRFMDNDTRYSTFACENPNSTRVSDFRTANCS
For the protein B3, the “Proxy for plastic degradation” value was found to be 30 µM in data set [2] (12 h); 37.5 µM in data set [2] (24 h); 42.5 µM in data set [2] (36 h); 47.5 µM in data set [2] (48 h); 50 µM in data set [2] (60 h); 60 µM in data set [2] (72 h). The “Proxy for plastic degradation” value in data set [2] (84 h) turned out to be 70 µM; in data set [2] (96 h), 80 µM; in data set [2] (108 h), 100 µM; in data set [3] (12 h), 140 µM; in data set [3] (24 h), 150 µM; in data set [3] (36 h) it was 160 µM. Besides, the “Proxy for plastic degradation” value came to 165 µM in data set [3] (48 h); 155 µM in data set [3] (60 h); 155 µM in data set [3] (72 h); 158 µM in data set [3] (84 h); 165 µM in data set [3] (96 h); 158 µM in data set [3] (108 h). The “Proxy for plastic degradation” value in data set [4] (16 h) amounted to 175 µM; in data set [4] (27.75 h), 200 µM; in data set [4] (39.5 h), 210 µM; in data set [4] (51.25 h), 220 µM; in data set [4] (60 h) it was 215 µM; in data set [4] (74.75 h), 225 µM. Also, the “Proxy for plastic degradation” value in data set [4] (86.5 h) is 235 µM; in data set [4] (98.25 h), 240 µM; in data set [4] (110 h), 250 µM.
